These results are taken from US20090209022A1 (AstraZeneca / MedImmune, published 2009).

This data set concerns the molecule itself. The data set is described as follows: X-ray crystallography, partial model and electron density map.

B1: H. influenzae pyrH UMP kinase (HI-1065), SeMet labelled, expressed from pSM145 (enzyme)
chain: GQPIYKRILLKLSGEALQGEDGLGIDPAILDRMAVEIKELVEMGVEVSVVLGGGNLFRGAKLAKAGMNRVVGDHMGMLATVMNGLAMRDSLFRADVNAKLMSAFQLNGICDTYNWSEAIKMLREKRVVIFSAGTGNPFFTTDSTACLRGIEIEADVVLKATKVDGVYDCDPAKNPDAKLYKNLSYAEVIDKELKVMDLSAFTLARDHGMPIRVFNMGKPGALRQVVTGTEEGTTIC
modifications: all methionines substituted with seleno-methionine (SeMet) in the crystallised protein
notes: Homohexamer (trimer of dimers); The crystal asymmetric unit holds eight chains: one hexamer and one dimer that gives a hexamer by crystallographic symmetry; The crystal also holds GTP (modelled as GDP) and phosphate
For the protein B1, the binding result is “binds”.
